Measured values published in patent US20200165334A1 (FRAUNHOFER GESELLSCHAFT ZUR F RDERUNG DER ANGEWANDTEN …, published 2020).

Target: T1, murine IL-38 (mouse, UniProt Q8R459 1-152, limits assumed, C-terminally-biotinylated form)
T1 construct: Bacterially expressed in a C-terminally-biotinylated form and used as the antigen for phage selection; also called mouse IL-38; IL1F10
T1 sequence (looked up): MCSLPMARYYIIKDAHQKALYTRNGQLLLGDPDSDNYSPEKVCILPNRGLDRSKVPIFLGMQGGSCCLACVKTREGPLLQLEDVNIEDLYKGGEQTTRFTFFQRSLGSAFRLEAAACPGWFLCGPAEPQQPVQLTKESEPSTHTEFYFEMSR
Test: biolayer interferometry, fitted sensorgrams (association to about 600 s, dissociation to 1800 s); concentrations of the traces not given

B1: Fab H06 (Fab, V domains shown)
VH: EVQLVESGGGLVQPGGSLRLSCAASGFSLSYSYIHWVRQAPGKGLEWVASISPSYSYTSYADSVKGRFTISADTSKNTAYLQMNSLRAEDTAVYYCARAPVPHVWPYSGFDYWGQGTLVTVSS
VL: DIQMTQSPSSLSASVGDRVTITCRASQSVSSAVAWYQQKPGKAPKLLIYSASSLYSGVPSRFSGSRSGTDFTLTISSLQPEDFATYYCQQAYWSPITFGQGTKVEIK
notes: the constant domains of the Fab are not
- Kd: 69 nM

B2: Fab E04 (Fab, V domains shown)
VH: EVQLVESGGGLVQPGGSLRLSCAASGFSFSSSSIHWVRQAPGKGLEWVASISPYYSYTSYADSVKGRFTISADTSKNTAYLQMNSLRAEDTAVYYCARTVRGSKKPYFSGWAMDYWGQGTLVTVSS
VL: DIQMTQSPSSLSASVGDRVTITCRASQSYYSYVAWYQQKPGKAPKLLIYSASSLYSGVPSRFSGSRSGTDFTLTISSLQPEDFATYYCQQVFAPITFGQGTKVEIK
notes: as for B1
- Kd: 6.7 nM
